Experimental data published in patent US20230035659A1, “Compositions and Methods for TTR Gene Editing and Treating ATTR Amyloidosis Comprising a Corticosteroid or Use Thereof” (Intellia Therapeutics, Inc., priority 2019, published 2023).
Strand notation (5' to 3'): a small letter for the sugar, then the base; units joined by * are phosphorothioate-linked, units joined directly phosphodiester-linked; [ ] holds rarer units or linkages, { } end groups; capitals alone tell only the bases. m = 2'-O-methyl; r = 2'-OH (RNA)

What was measured:
TTR [1] = experiment: TTR editing in primary cyno hepatocytes treated with LNP formulated Spy Cas9 mRNA (SEQ ID NO: 2) and sgRNAs, 12.5 ng mRNA; type: cell-based, cynomolgus monkey; settings: LNP formulated Spy Cas9 mRNA (SEQ ID NO: 2) and cyno matched sgRNA, lysed 72 hours post treatment
Description: (§1) Primary liver hepatocytes. Primary human liver hepatocytes (PHH) and primary cynomolgus liver hepatocytes (PCH) (Gibco) were cultured per the manufacturer's protocol (Invitrogen, protocol 11.28.2012). In brief, the cells were thawed and resuspended in hepatocyte thawing medium with supplements (Gibco, Cat. CM7000) followed by centrifugation at 100 g for 10 minutes for human and 80 g for 4 minutes for cyno. The supernatant was discarded and the pelleted cells resuspended in hepatocyte plating medium plus supplement pack (Invitrogen, Cat. A1217601 and CM3000). Cells were counted and plated on Bio-coat collagen I coated 96-well plates (ThermoFisher, Cat. 877272) at a density of 33,000 cells/well for human or 60,000 cells/well for cyno (or 65,000 cells/well when assaying effects on TTR protein, described further below). Plated cells were allowed to settle and adhere for 6 or 24 hours in a tissue culture incubator at 37° C. and 5% CO2 atmosphere. After incubation cells were checked for monolayer formation and media was replaced with hepatocyte culture medium with serum-free supplement pack (Invitrogen, Cat. A1217601 and CM4000).
In general, the lipid nanoparticle components were dissolved in 100% ethanol with the lipid component of various molar ratios. The RNA cargos were dissolved in 25 mM citrate, 100 mM NaCl, pH 5.0, resulting in a concentration of RNA cargo of approximately 0.45 mg/mL. The LNPs were formulated with a lipid amine to RNA phosphate (N:P) molar ratio of about 4.5 or about 6, with the ratio of mRNA to gRNA at 1:1 by weight.
The LNPs were formed by microfluidic mixing of the lipid and RNA solutions using a Precision Nanosystems NanoAssemblr™ Benchtop Instrument, according to the manufacturer's protocol. A 2:1 ratio of aqueous to organic solvent was maintained during mixing using differential flow rates. […]
Additional PCR was performed per the manufacturer's protocols (Illumina) to add chemistry for sequencing. […] The reads were aligned to a reference genome (e.g., the human reference genome (hg38), the cynomologus reference genome (mf5), the rat reference genome (rn6), or the mouse reference genome (mm10)) after eliminating those having low quality scores. The resulting files containing the reads were mapped to the reference genome (BAM files), where reads that overlapped the target region of interest were selected and the number of wild type reads versus the number of reads which contain an insertion, substitution, or deletion was calculated.
The editing percentage (e.g., the “editing efficiency” or “percent editing” or “indel frequency”) is defined as the total number of sequence reads with insertions/deletions (“indels”) or substitutions over the total number of sequence reads, including wild type. […]

TTR [2] = experiment: TTR editing dose response (EC50, maximum editing) in primary human hepatocytes treated with LNP formulated U-depleted Spy Cas9 mRNA and sgRNAs; type: cell-based; settings: LNP with U-depleted Spy Cas9 mRNA and cyno specific sgRNA, 8 point 3-fold dose response starting at 300 ng mRNA, 72 hours
Description: as §1
(§2) For LNPs prepared using the cross-flow technique, the LNPs were formed by impinging jet mixing of the lipid in ethanol with two volumes of RNA solutions and one volume of water. The lipid in ethanol is mixed through a mixing cross with the two volumes of RNA solution. A fourth stream of water is mixed with the outlet stream of the cross through an inline tee. (See WO2016010840 FIG. 2.) The LNPs were held for 1 hour at room temperature, and further diluted with water (approximately 1:1 v/v). Diluted LNPs were concentrated using tangential flow filtration on a flat sheet cartridge (Sartorius, 100 kD MWCO) and then buffer exchanged by diafiltration into 50 mM Tris, 45 mM NaCl, 5% (w/v) sucrose, pH 7.5 (TSS). Alternatively, the final buffer exchange into TSS was completed with PD-10 desalting columns (GE). If required, formulations were concentrated by centrifugation with Amicon 100 kDa centrifugal filters (Millipore). The resulting mixture was then filtered using a 0.2 μm sterile filter. The final LNP was stored at 4° C. or −80° C. until further use.
(§3) Additional PCR was performed per the manufacturer's protocols (Illumina) to add chemistry for sequencing. The amplicons were sequenced on an Illumina MiSeq instrument. The reads were aligned to a reference genome (e.g., the human reference genome (hg38), the cynomologus reference genome (mf5), the rat reference genome (rn6), or the mouse reference genome (mm10)) after eliminating those having low quality scores. The resulting files containing the reads were mapped to the reference genome (BAM files), where reads that overlapped the target region of interest were selected and the number of wild type reads versus the number of reads which contain an insertion, substitution, or deletion was calculated.
(§4) The editing percentage (e.g., the “editing efficiency” or “percent editing” or “indel frequency”) is defined as the total number of sequence reads with insertions/deletions (“indels”) or substitutions over the total number of sequence reads, including wild type.
(§5) Lipid nanoparticle formulations of modified sgRNAs targeting human TTR and the cyno matched sgRNA sequences were tested on primary human hepatocytes and primary cyno hepatocytes in a dose response curve. Primary human and cyno hepatocytes were plated as described in Example 1. Both cell lines were incubated at 37° C., 5% CO2 for 24 hours prior to treatment with LNPs. The LNPs used in the experiments detailed in Tables 20-22 were prepared using the cross-flow procedure described above but purified using PD-10 columns (GE Healthcare Life Sciences) and concentrated using Amicon centrifugal filter units (Millipore Sigma), each containing the specified sgRNA and Cas9 mRNA (SEQ ID NO:1). […] LNPs were incubated in hepatocyte maintenance media containing 6% cyno serum at 37° C., 5% CO2 for 5 minutes. […]

TTR [3] = experiment: TTR editing dose response (EC50, maximum editing) in primary cyno hepatocytes treated with LNP formulated U-depleted Spy Cas9 mRNA and sgRNAs; type: cell-based, cynomolgus monkey
Description: as §1, §2, §3, §4, §5

B1: G000509: TTR Cyno specific sgRNA modified sequence, SEQ ID NO: 121; guide sequence of CR005369 (nucleic acid)
guide: mA*mA*mA*rGrUrUrCrUrArGrArUrGrCrCrGrUrCrCrGrGrUrUrUrUrArGrAmGmCmUmAmGmAmAmAmUmAmGmCrArArGrUrUrArArArArUrArArGrGrCrUrArGrUrCrCrGrUrUrArUrCrAmAmCmUmUmGmAmAmAmAmAmGmUmGmGmCmAmCmCmGmAmGmUmCmGmGmUmGmCmU*mU*mU*mU
In the case of B1, the “12.5 ng mRNA, 3.9 nM sgRNA, Avg % Edit” value (TTR [1]) is reported as 74.47%.

B2: G000510: TTR Cyno specific sgRNA modified sequence, SEQ ID NO: 122; guide sequence of CR005370 (nucleic acid)
guide: mA*mC*mU*rUrGrUrCrUrUrCrUrCrUrArUrArCrCrCrArGrUrUrUrUrArGrAmGmCmUmAmGmAmAmAmUmAmGmCrArArGrUrUrArArArArUrArArGrGrCrUrArGrUrCrCrGrUrUrArUrCrAmAmCmUmUmGmAmAmAmAmAmGmUmGmGmCmAmCmCmGmAmGmUmCmGmGmUmGmCmU*mU*mU*mU
With B2 the “12.5 ng mRNA, 3.9 nM sgRNA, Avg % Edit” value (TTR [1]) was 61.87%.

B3: G000506: TTR Cyno specific sgRNA modified sequence, SEQ ID NO: 118; guide sequence of CR005366 (nucleic acid)
guide: mA*mU*mA*rCrCrArGrUrCrCrArGrCrGrArGrGrCrArGrGrUrUrUrUrArGrAmGmCmUmAmGmAmAmAmUmAmGmCrArArGrUrUrArArArArUrArArGrGrCrUrArGrUrCrCrGrUrUrArUrCrAmAmCmUmUmGmAmAmAmAmAmGmUmGmGmCmAmCmCmGmAmGmUmCmGmGmUmGmCmU*mU*mU*mU
For B3, the “12.5 ng mRNA, 3.9 nM sgRNA, Avg % Edit” value (TTR [1]) was 60.13%, the “Max Editing” value (TTR [2]) was 89.49% and the “Max Editing” value (TTR [3]; LNP formulated U-depleted Spy Cas9 mRNA and cyno specific sgRNAs) was 99.18%. For the same molecule, the “Max Editing” value (TTR [3]; LNP formulated U-depleted Spy Cas9 mRNA and human specific sgRNAs) was 89.49%.
